Data on 32 molecules can be found in article PMC10786891, “Massively parallel profiling of RNA-targeting CRISPR-Cas13d”.

T1: EsCas13d, nuclease-dead (Eubacterium siraeum, UniProt B0MS50, R295A;H300A;R849A;H854A)
T1 sequence: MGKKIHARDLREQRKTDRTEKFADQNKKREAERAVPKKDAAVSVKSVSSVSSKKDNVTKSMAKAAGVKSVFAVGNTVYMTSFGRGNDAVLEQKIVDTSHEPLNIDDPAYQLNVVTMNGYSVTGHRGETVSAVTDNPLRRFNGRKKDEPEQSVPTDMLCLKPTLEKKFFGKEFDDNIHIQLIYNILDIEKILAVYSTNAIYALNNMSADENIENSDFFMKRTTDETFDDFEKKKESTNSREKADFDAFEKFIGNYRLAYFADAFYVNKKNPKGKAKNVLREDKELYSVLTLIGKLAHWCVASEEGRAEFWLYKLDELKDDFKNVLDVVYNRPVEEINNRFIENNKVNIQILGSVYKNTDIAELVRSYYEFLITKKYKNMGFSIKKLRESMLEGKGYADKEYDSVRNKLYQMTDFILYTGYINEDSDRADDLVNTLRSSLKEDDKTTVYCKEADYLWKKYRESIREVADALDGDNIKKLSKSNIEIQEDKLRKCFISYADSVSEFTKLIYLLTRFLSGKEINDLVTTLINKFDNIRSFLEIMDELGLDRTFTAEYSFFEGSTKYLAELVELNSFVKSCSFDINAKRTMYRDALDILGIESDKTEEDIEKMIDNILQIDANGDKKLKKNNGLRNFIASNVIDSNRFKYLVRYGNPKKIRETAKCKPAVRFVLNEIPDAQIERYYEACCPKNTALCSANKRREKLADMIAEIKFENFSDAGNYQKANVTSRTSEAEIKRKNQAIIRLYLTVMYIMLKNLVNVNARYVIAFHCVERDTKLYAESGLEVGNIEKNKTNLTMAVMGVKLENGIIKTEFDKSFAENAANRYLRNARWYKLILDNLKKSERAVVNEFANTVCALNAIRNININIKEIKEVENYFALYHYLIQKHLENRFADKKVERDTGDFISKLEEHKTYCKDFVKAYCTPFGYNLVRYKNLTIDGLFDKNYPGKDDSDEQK

B1: target 1 insU 3' of 20,insA 3' of 10 (mixed)
RNA 1: CACCCGUGCAAAAAUGCAGGGGUCUAAAACUGAGCGGAUAACCUCUCUAUGG
RNA 2: GGGAAUGGAUCCACAUCUACGAAUUCGUACCAUUAGAGAGGUUAAUCCGCUCACCGAGAUCGGAAGAGCACACGU
B2: target 1 G12A (mixed)
RNA 1: B1 RNA 1
RNA 2: GGGAAUGGAUCCACAUCUACGAAUUCGUACCAUAGAGAGAUUAUCCGCUCACCGAGAUCGGAAGAGCACACGU
B3: target 1 insG 3' of 16,insG 3' of 7 (mixed)
RNA 1: B1 RNA 1
RNA 2: B1 RNA 2 with U34A, A35G, G36A, A37G, A45U, U46C, C47G
B4: target 1 C7A,A20C (mixed)
RNA 1: B1 RNA 1
RNA 2: B2 RNA 2 with A32C, A40G, C45A
B5: target 1 C4A,C21U (mixed)
RNA 1: B1 RNA 1
RNA 2: B2 RNA 2 with C31U, A40G, C48A
B6: target 1 insG 3' of 10,insA 3' of 6 (mixed)
RNA 1: B1 RNA 1
RNA 2: GGGAAUGGAUCCACAUCUACGAAUUCGUACCAUAGAGAGGUUGAUCCAGCUCACCGAGAUCGGAAGAGCACACGU
B7: target 1 insC 3' of 17,insA 3' of 8 (mixed)
RNA 1: B1 RNA 1
RNA 2: B1 RNA 2 with U34A, A35G, G36C, A45U, U46A
B8: target 1 A1U,G12A (mixed)
RNA 1: B1 RNA 1
RNA 2: B2 RNA 2 with A51U
B9: target 1 insA 3' of 2,insU 3' of 1 (mixed)
RNA 1: B1 RNA 1
RNA 2: B6 RNA 2 with G43A, A44U, U45C, C47G, A48C, G49U, U51A, C52A, A53U
B10: target 1 C7A,U19G (mixed)
RNA 1: B1 RNA 1
RNA 2: B2 RNA 2 with U33G, A40G, C45A
B11: target 1 insU 3' of 7,insU 3' of 6 (mixed)
RNA 1: B1 RNA 1
RNA 2: B6 RNA 2 with G43A, A44U, U45C, C46U, A48U
B12: target 1 insA 3' of 15 (mixed)
RNA 1: B1 RNA 1
RNA 2: GGGAAUGGAUCCACAUCUACGAAUUCGUACCAUAGAGAAGGUUAUCCGCUCACCGAGAUCGGAAGAGCACACGU
B13: target 1 C2A,G17C (mixed)
RNA 1: B1 RNA 1
RNA 2: B2 RNA 2 with G35C, A40G, C50A
B14: target 1 insU 3' of 15,insC 3' of 15 (mixed)
RNA 1: B1 RNA 1
RNA 2: B1 RNA 2 with U34A, A35G, G36A, A37G, G38U, A39C, G40A, U42G, A44U
B15: target 1 insG 3' of 8,insU 3' of 6 (mixed)
RNA 1: B1 RNA 1
RNA 2: B6 RNA 2 with G43A, A44U, U45G, A48U
B16: target 1 C6U,U10G (mixed)
RNA 1: B1 RNA 1
RNA 2: B2 RNA 2 with A40G, U42G, C46U
B17: target 1 A9G,G13A (mixed)
RNA 1: B1 RNA 1
RNA 2: B2 RNA 2 with G39A, A40G, A43G
B18: target 1 insU 3' of 9,insU 3' of 9 (mixed)
RNA 1: B1 RNA 1
RNA 2: B6 RNA 2 with G43A, A44U, C46U, A48C
B19: target 1 G5C,U11C (mixed)
RNA 1: B1 RNA 1
RNA 2: B2 RNA 2 with A40G, U41C, G47C
B20: target 1 G5U,U10G (mixed)
RNA 1: B1 RNA 1
RNA 2: B2 RNA 2 with A40G, U42G, G47U
B21: target 1 insC 3' of 14,insU 3' of 12 (mixed)
RNA 1: B1 RNA 1
RNA 2: B6 RNA 2 with G39C, U41G, G43U, A44U, U45A, C46U, A48C
B22: target 1 insC 3' of 3,insC 3' of 3 (mixed)
RNA 1: B1 RNA 1
RNA 2: B6 RNA 2 with G43A, A44U, U45C, C47G, A48C, G49U, U51C
B23: target 1 G12A,U19A (mixed)
RNA 1: B1 RNA 1
RNA 2: B2 RNA 2 with U33A
B24: target 1 complement block 5-11 (mixed)
RNA 1: B1 RNA 1
RNA 2: B2 RNA 2 with A40G, U41A, U42A, A43U, U44A, C45G, C46G, G47C
B25: target 1 insG 3' of 18,insA 3' of 7 (mixed)
RNA 1: B1 RNA 1
RNA 2: B1 RNA 2 with U34A, A35G, A45U, U46C, C47A
B26: target 1 C4U,U11G (mixed)
RNA 1: B1 RNA 1
RNA 2: B2 RNA 2 with A40G, U41G, C48U
B27: target 1 G13U,A20C (mixed)
RNA 1: B1 RNA 1
RNA 2: B2 RNA 2 with A32C, G39U, A40G
B28: target 1 A1G,G12A (mixed)
RNA 1: B1 RNA 1
RNA 2: B2 RNA 2 with A51G
B29: target 1 insA 3' of 13,insG 3' of 11 (mixed)
RNA 1: B1 RNA 1
RNA 2: B6 RNA 2 with G40A, U41G, A44U, U45A, C46U, A48C
B30: target 1 C6G,G15U (mixed)
RNA 1: B1 RNA 1
RNA 2: B2 RNA 2 with G37U, A40G, C46G
B31: target 1 insA 3' of 5,insG 3' of 3 (mixed)
RNA 1: B1 RNA 1
RNA 2: B6 RNA 2 with G43A, A44U, U45C, C47G, G49C, C50U, U51G
B32: target 1 C4A,A9G (mixed)
RNA 1: B1 RNA 1
RNA 2: B2 RNA 2 with A40G, A43G, C48A

Substitutions are numbered along the chain they refer to. Names and notes keep the numbering of the source.

What is called Kd is the constant that tells how readily two partners part at equilibrium. A high value points to a looser complex.

In the data set the target is T1, EsCas13d, nuclease-dead. As to the kind of experiment: crRNA (strand 1, pre-loaded); Mg2+; 40 mM Tris-HCl pH 7.5, 150 mM NaCl, 6 mM MgCl2, 1 mM DTT, 0.1% Tween-20, 0.2 mg/ml BSA; 25 C; 10 min per concentration, then washed. To be noted: tags: His6-TwinStrep-SUMO cleaved; N-terminal SNAP kept (SNAP-Surface 488); label: 3' end held by stalled T7 RNA polymerase.
B1 showed a Kd of 19.4 ± 1.1 nM.
Regarding B2, the affinity, expressed as Kd, was 5.5 ± 0.4 nM.
For the molecule B3, the Kd amounted to 16.5 ± 1.7 nM.
The molecule B4 had a Kd of 61 ± 22 nM.
B5: the dissociation constant (Kd) worked out at 4.4 ± 0.7 nM.
With B6, the Kd worked out at 41 ± 6 nM.
Molecule B7 displayed a Kd of 52 ± 7 nM.
As to B8, the equilibrium dissociation constant (Kd) is 5.2 ± 0.5 nM.
As for B9, the equilibrium dissociation constant (Kd) was found to be 10.5 ± 0.6 nM.
B10 registered an equilibrium dissociation constant (Kd) of 55 ± 6 nM.
Consider B11, for which the dissociation constant Kd is 55 ± 4 nM.
B12 came in with a Kd of 5.9 ± 0.6 nM.
Turning to B13, binding was characterised by a dissociation constant (Kd) of 57 ± 5 nM.
In turn, B14 came in with a Kd of 28.4 ± 3.2 nM.
Turning to B15, the affinity, expressed as Kd, was 16.5 ± 0.6 nM.
As for B16, the Kd came out at 15.7 ± 1.1 nM.
For the molecule B17, the Kd is 8.4 ± 0.4 nM.
For B18, binding was characterised by a dissociation constant (Kd) of 18.8 ± 1 nM.
As to B19, binding was characterised by a dissociation constant (Kd) of 16.8 ± 1.1 nM.
Molecule B20 had a dissociation constant Kd of 57 ± 5 nM.
B21 showed a Kd of 43 ± 9 nM.
In turn, B22 showed a dissociation constant (Kd) of 43 ± 15 nM.
In turn, B23 registered a dissociation constant (Kd) of 51 ± 11 nM.
The same measure for B24: 19.2 ± 0.6 nM; for B25: 43 ± 4 nM; for B26: 21 ± 4 nM.
The same measure for B27: around 90 nM; for B28: 5.9 ± 0.5 nM; for B29: 13.2 ± 0.8 nM.
For the molecule B30, binding was characterised by a dissociation constant (Kd) of 36 ± 5 nM.
The value for B31 was 5.94 ± 0.29 nM; that for B32 was 3.18 ± 0.24 nM.
